Where two headings read alike, the source gives them in different places.
Assays:
PAN = molecular target: T1, PAN (Methanocaldococcus jannaschii, UniProt Q58576); assay: α-32P-ATP binding, rapid spin gel filtration
T1 sequence (Q58576 1-430): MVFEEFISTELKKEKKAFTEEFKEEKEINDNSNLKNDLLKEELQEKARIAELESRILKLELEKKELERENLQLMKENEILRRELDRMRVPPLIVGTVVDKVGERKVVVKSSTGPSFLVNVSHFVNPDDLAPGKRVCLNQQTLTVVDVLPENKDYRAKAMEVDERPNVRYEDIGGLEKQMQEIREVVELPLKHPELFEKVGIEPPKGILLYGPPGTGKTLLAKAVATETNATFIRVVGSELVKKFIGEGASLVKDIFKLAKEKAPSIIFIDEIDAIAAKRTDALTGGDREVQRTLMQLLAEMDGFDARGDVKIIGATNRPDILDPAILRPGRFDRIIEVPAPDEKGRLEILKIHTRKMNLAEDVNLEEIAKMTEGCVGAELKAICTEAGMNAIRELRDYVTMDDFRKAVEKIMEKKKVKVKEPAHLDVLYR

PAN ATPase complex [1] = molecular target: PAN ATPase complex (UniProt Q58576); assay: fluorescence polarisation
PAN ATPase complex [2] = molecular target: PAN ATPase complex (UniProt Q58576); assay: fluorescence polarisation; remark: listed apart in the source
[3] = substrate: Nc1ncnc2c1ncn2[C@@H]1O[C@H](COP(=O)(O)OP(=O)(O)OP(=O)(O)O)[C@@H](O)[C@H]1O; assay: ATPase, inorganic phosphate release; format: biochemical, Methanocaldococcus jannaschii; details: 45 °C

Molecule: Nc1ncnc2c1ncn2[C@@H]1O[C@H](COP(=O)(O)OP(=O)(O)OP(=O)(O)O)[C@@H](O)[C@H]1O [ATP]
- Kd (PAN): 13 µM

Molecule: FITC-casein (from UniProt P02666 16-224) (natural protein)
- change in polarization (PAN ATPase complex [1]): 7 mP
- change in polarization (PAN ATPase complex [2]): 56 mP

B1: PAN (Methanocaldococcus jannaschii DSM 2661) (protein)
chain: MVFEEFISTELKKEKKAFTEEFKEEKEINDNSNLKNDLLKEELQEKARIAELESRILKLELEKKELERENLQLMKENEILRRELDRMRVPPLIVGTVVDKVGERKVVVKSSTGPSFLVNVSHFVNPDDLAPGKRVCLNQQTLTVVDVLPENKDYRAKAMEVDERPNVRYEDIGGLEKQMQEIREVVELPLKHPELFEKVGIEPPKGILLYGPPGTGKTLLAKAVATETNATFIRVVGSELVKKFIGEGASLVKDIFKLAKEKAPSIIFIDEIDAIAAKRTDALTGGDREVQRTLMQLLAEMDGFDARGDVKIIGATNRPDILDPAILRPGRFDRIIEVPAPDEKGRLEILKIHTRKMNLAEDVNLEEIAKMTEGCVGAELKAICTEAGMNAIRELRDYVTMDDFRKAVEKIMEKKKVKVKEPAHLDVLYR
- Km [3]: 263 ± 18 µM

Source: article PMC3063399 (Cell, 2011)
